Article PMC10329719 (2023)
Primed or numbered codes have the meaning given here. Where no end group is shown, it is not given here. FITC′ = not defined here

Tests used:
Assay in all cases: ELISA-like fluorescence binding assay
TβR3 = target: T1, TβR3 (Homo sapiens, UniProt Q03167)
T1 chain: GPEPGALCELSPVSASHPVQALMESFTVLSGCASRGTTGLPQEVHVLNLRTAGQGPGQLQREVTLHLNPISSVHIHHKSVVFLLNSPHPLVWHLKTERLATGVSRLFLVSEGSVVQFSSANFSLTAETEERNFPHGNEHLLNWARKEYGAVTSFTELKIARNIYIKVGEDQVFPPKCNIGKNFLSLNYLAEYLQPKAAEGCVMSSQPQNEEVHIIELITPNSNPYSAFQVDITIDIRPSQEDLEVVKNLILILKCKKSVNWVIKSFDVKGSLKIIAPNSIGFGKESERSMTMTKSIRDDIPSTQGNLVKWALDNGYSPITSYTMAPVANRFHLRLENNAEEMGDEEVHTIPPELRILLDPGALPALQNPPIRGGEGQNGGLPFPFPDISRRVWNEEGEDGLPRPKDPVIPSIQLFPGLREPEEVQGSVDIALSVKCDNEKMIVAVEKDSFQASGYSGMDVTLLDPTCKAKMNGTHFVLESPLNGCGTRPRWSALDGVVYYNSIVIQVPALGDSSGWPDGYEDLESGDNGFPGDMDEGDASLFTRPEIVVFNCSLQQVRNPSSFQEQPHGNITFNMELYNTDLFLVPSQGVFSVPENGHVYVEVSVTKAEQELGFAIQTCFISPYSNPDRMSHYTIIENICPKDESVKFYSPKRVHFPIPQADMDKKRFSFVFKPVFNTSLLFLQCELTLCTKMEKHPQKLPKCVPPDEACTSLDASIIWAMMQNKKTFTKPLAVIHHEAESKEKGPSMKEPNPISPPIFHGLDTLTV

TβR1 = target: T2, TβR1 (Homo sapiens, UniProt P36897)
T2 chain: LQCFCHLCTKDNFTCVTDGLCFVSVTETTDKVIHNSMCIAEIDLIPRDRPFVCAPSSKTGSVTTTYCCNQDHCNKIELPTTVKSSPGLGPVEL

TβR2 = TβR2 (Homo sapiens, UniProt P37173)
TβR2, sequence (P37173 23-166): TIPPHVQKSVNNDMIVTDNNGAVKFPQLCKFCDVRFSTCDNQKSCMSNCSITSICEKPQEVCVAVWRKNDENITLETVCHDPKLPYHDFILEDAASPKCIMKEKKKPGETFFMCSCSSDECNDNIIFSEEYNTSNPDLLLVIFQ

- Kd (TβR3): > 34 µM
- Kd (TβR1): > 34 µM
- Kd (TβR2): 3.4 µM
B1: PTβR2I (peptide)
chain: ECGLLPVGRPDRVWRLCK-{FITC′}
modifications: cysteine pairing not given here
